In assay [1] the target is human BCMA expressed on the cell surface (human) (UniProt Q02223). Nature of the assay: flow cytometry on AMO1 cells.
For assay [2] the target is unchanged. Nature of the assay: flow cytometry on H929 cells.
Assay [3] has the same target. Description: flow cytometry on L363 cells. On the technique in general: In flow cytometry, cells or beads pass a laser one at a time.
The target is the same in assay [4]. Description: flow cytometry on U266 cells.
The target is the same in assay [5]. Nature of the assay: flow cytometry on MM.1s cells.
Assay [6] shares this target. Description: flow cytometry on RPMI8226 cells.
For assay [7] the target is unchanged. Nature of the assay: flow cytometry on hBCMA-CHO-GS cells.
Assay [8] has as its target mouse BCMA expressed on CHO GS cells (mouse) (UniProt O88472). Description: flow cytometry on mBCMA-CHO-GS cells.
Assay [9] has as its target cynomolgus monkey BCMA expressed on CHO GS cells (cynomolgus monkey). Description: flow cytometry on cynoBCMA-CHO-GS cells.

Sequence of human BCMA expressed on the cell surface (human) (Q02223 whole entry): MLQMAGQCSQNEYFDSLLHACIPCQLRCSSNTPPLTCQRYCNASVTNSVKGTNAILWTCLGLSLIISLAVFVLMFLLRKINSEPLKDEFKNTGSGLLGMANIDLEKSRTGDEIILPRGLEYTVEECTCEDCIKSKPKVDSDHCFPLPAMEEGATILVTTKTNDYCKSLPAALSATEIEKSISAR
Sequence of cynomolgus monkey BCMA expressed on CHO GS cells (cynomolgus monkey) (chain, as listed by the source): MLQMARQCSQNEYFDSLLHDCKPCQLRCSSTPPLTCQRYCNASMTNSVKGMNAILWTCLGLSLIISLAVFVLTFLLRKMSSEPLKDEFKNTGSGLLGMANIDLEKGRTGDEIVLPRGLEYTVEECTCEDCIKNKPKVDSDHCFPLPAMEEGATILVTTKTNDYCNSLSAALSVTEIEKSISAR
Sequence of mouse BCMA expressed on CHO GS cells (mouse) (O88472 whole entry): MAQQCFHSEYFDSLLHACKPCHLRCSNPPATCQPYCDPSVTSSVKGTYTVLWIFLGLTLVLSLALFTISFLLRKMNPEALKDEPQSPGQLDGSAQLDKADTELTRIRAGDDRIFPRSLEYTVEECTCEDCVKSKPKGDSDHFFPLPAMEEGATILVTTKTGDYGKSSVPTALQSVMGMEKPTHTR

For “GSK PG antibody (BCMA antibody clone J6M0 of GSK, P329G human IgG1)”, the concentration giving a half-maximal response (EC50) in assay [1] is 12.9 nM; in assay [2], 7.69 nM; in assay [3] it was 10.4 nM; in assay [4] it was 8.74 nM; in assay [5], 7.54 nM; in [6], 5.97 nM. The EC50 in assay [7] came out at 5 nM; in assay [8] it was 132 nM; in [9] it was 10 nM.

For orientation: EC50 means the concentration at which the effect is half-maximal.

These data come from patent publication US20250034268A1.
